The values below are quoted from earlier work in article PMC3324669.

The target of this data set is CD155 (Homo sapiens) (UniProt P15151).
Chain of UniProt P15151 (P15151 21-343): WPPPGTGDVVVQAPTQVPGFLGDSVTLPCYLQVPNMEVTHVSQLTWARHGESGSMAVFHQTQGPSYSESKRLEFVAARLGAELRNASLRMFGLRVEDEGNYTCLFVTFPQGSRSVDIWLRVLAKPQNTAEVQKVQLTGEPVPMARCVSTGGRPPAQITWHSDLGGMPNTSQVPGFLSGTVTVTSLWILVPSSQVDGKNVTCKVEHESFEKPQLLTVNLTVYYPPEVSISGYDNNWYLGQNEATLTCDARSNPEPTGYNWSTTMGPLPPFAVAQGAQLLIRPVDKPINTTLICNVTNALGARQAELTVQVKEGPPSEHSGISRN

Usually Kd stands for the equilibrium constant for the complex coming apart. In the case of CD226 (from UniProt Q15762), the Kd is 2 nM.
